Measurements taken from the supplement of paper PMC11246515.
± gives the standard deviation of the averaged measurements.

Assay: total protein half-life in vivo (active degradation + dilution); higher = more stable protein
[1] = E. coli NCM3722 delta-hslV, growth: N-lim chemostat, doubling time 6 h
[2] = E. coli NCM3722 delta-smpB, growth: N-lim chemostat, doubling time 6 h
[3] = wild type E. coli NCM3722, growth: C-lim chemostat, doubling time 3 h
[4] = wild type E. coli NCM3722, growth: C-lim chemostat, doubling time 6 h
[5] = wild type E. coli NCM3722, growth: C-lim chemostat, doubling time 12 h
[6] = wild type E. coli NCM3722, growth: N-lim chemostat, doubling time 6 h
[7] = wild type E. coli NCM3722, growth: N-lim chemostat, doubling time 12 h
[8] = wild type E. coli NCM3722, growth: P-lim chemostat, doubling time 6 h
[9] = wild type E. coli NCM3722, growth: P-lim chemostat, doubling time 12 h
[10] = E. coli NCM3722 delta-clpP delta-lon delta-hslV, growth: N-lim chemostat, doubling time 6 h
[11] = E. coli NCM3722 delta-clpP, growth: N-lim chemostat, doubling time 6 h
[12] = E. coli NCM3722 delta-lon, growth: N-lim chemostat, doubling time 6 h

| Substance | total protein half-life in vivo [1] [h] | total protein half-life in vivo [2] [h] | total protein half-life in vivo [3] [h] | total protein half-life in vivo [4] [h] | total protein half-life in vivo [5] [h] | total protein half-life in vivo [6] [h] | total protein half-life in vivo [7] [h] | total protein half-life in vivo [8] [h] | total protein half-life in vivo [9] [h] | total protein half-life in vivo [10] [h] | total protein half-life in vivo [11] [h] | total protein half-life in vivo [12] [h] |
| --- | --- | --- | --- | --- | --- | --- | --- | --- | --- | --- | --- | --- |
| MRHLRNIFNLGIKELRSLLGDKAMLTLIVFSFTVSVYSSATVTPGSLNLAPIAIADMDQSQLSNRIVNSFYRPWFLPPEMITADEMDAGLDAGRYTFAINIPPNFQRDVLAGRQPDIQVNVDATRMSQAFTGNGYIQNIINGEVNSFVARYRDNSEPLVSLETRMRFNPNLDPAWFGGVMAIINNITMLAIVLTGSALIREREHGTVEHLLVMPITPFEIMMAKIWSMGLVVLVVSGLSLVLMVKGVLGVPIEGSIPLFMLGVALSLFATTSIGIFMGTIARSMPQLGLLVILVLLPLQMLSGGSTPRESMPQMVQDIMLTMPTTHFVSLAQAILYRGAGFEIVWPQFLTLMAIGGAFFTIALLRFRKTIGTMA [P0AGH1] | 7.18 ± 0.3 | 6.13 ± 0.76 | 3.9 | 7.01 | 12.2 | 5.76 ± 0.3 | 10.5 | 7.25 ± 0.75 | 11.7 ± 0.4 | – | – | – |
| MLRVYHSNRLDVLEALMEFIVERERLDDPFEPEMILVQSTGMAQWLQMTLSQKFGIAANIDFPLPASFIWDMFVRVLPEIPKESAFNKQSMSWKLMTLLPQLLEREDFTLLRHYLTDDSDKRKLFQLSSKAADLFDQYLVYRPDWLAQWETGHLVEGLGEAQAWQAPLWKALVEYTHQLGQPRWHRANLYQRFIETLESATTCPPGLPSRVFICGISALPPVYLQALQALGKHIEIHLLFTNPCRYYWGDIKDPAYLAKLLTRQRRHSFEDRELPLFRDSENAGQLFNSDGEQDVGNPLLASWGKLGRDYIYLLSDLESSQELDAFVDVTPDNLLHNIQSDILELENRAVAGVNIEEFSRSDNKRPLDPLDSSITFHVCHSPQREVEVLHDRLLAMLEEDPTLTPRDIIVMVADIDSYSPFIQAVFGSAPADRYLPYAISDRRARQSHPVLEAFISLLSLPDSRFVSEDVLALLDVPVLAARFDITEEGLRYLRQWVNESGIRWGIDDDNVRELELPATGQHTWRFGLTRMLLGYAMESAQGEWQSVLPYDESSGLIAELVGHLASLLMQLNIWRRGLAQERPLEEWLPVCRDMLNAFFLPDAETEAAMTLIEQQWQAIIAEGLGAQYGDAVPLSLLRDELAQRLDQERISQRFLAGPVNICTLMPMRSIPFKVVCLLGMNDGVYPRQLAPLGFDLMSQKPKRGDRSRRDDDRYLFLEALISAQQKLYISYIGRSIQDNSERFPSVLVQELIDYIGQSHYLPGDEALNCDESEARVKAHLTCLHTRMPFDPQNYQPGERQSYAREWLPAASQAGKAHSEFVQPLPFTLPETVPLETLQRFWAHPVRAFFQMRLQVNFRTEDSEIPDTEPFILEGLSRYQINQQLLNALVEQDDAERLFRRFRAAGDLPYGAFGEIFWETQCQEMQQLADRVIACRQPGQSMEIDLACNGVQITGWLPQVQPDGLLRWRPSLLSVAQGMQLWLEHLVYCASGGNGESRLFLRKDGEWRFPPLAAEQALHYLSQLIEGYREGMSAPLLVLPESGGAWLKTCYDAQNDAMLDDDSTLQKARTKFLQAYEGNMMVRGEGDDIWYQRLWRQLTPETMEAIVEQSQRFLLPLFRFNQS | 3.58 ± 0.068 | 3.63 ± 0.41 | 3.44 ± 0.61 | 5.57 ± 0.32 | 13 ± 2.4 | 4.32 ± 0.95 | 6.21 ± 0.64 | 6.1 ± 0.47 | 11.3 ± 0.4 | 5.23 ± 0.17 | 4.28 ± 0.21 | 4.13 ± 0.12 |
| P0AGE9 | 4.68 ± 0.31 | 4.28 ± 0.29 | 3.06 ± 0.069 | 5.43 ± 0.12 | 9.89 ± 1.2 | 4.64 ± 0.056 | 7.237 ± 0.026 | 5.85 ± 0.2 | 11.9 ± 0.51 | 4.58 ± 0.064 | 4.71 ± 0.71 | 5.1 ± 0.21 |
| MRMNMSDFATFFAVARNQSFRAAGDELGLSSSAISHSIKTLEQRLKIRLFNRTTRSVSLTEAGSNLYERLRPAFDEIQIMLDEMNDFRLTPTGTLKINAARVAARIFLMSLLVGFTREYPDIKVELTTDDSLVDIVQQGFDAGVRLSCIVEKDMISVAIGPPVKLCVAATPEYFARYGKPRHPHDLLNHQCVVFRYPSGKPFHWQFAKELEIAVAGNIILDDVDAELEAVLMGAGIGYLLYEQIKEYLDTGRLECVLEDWSTERPGFQIYYPNRQYMSCGLRAFLDYVKTGQICQSQRHRPQ | – | – | – | – | – | – | – | – | – | 5.54 ± 0.06 | – | – |
| MLKLFSAFRKNKIWDFNGGIHPPEMKTQSNGTPLRQVPLAQRFVIPLKQHIGAEGELCVSVGDKVLRGQPLTRGRGKMLPVHAPTSGTVTAIAPHSTAHPSALAELSVIIDADGEDCWIPRDGWADYRTRSREELIERIHQFGVAGLGGAGFPTGVKLQGGGDKIETLIINAAECEPYITADDRLMQDCAAQVVEGIRILAHILQPREILIGIEDNKPQAISMLRAVLADSNDISLRVIPTKYPSGGAKQLTYILTGKQVPHGGRSSDIGVLMQNVGTAYAVKRAVIDGEPITERVVTLTGEAIARPGNVWARLGTPVRHLLNDAGFCPSADQMVIMGGPLMGFTLPWLDVPVVKITNCLLAPSANELGEPQEEQSCIRCSACADACPADLLPQQLYWFSKGQQHDKATTHNIADCIECGACAWVCPSNIPLVQYFRQEKAEIAAIRQEEKRAAEAKARFEARQARLEREKAARLERHKSAAVQPAAKDKDAIAAALARVKEKQAQATQPIVIKAGERPDNSAIIAAREARKAQARAKQAELQQTNDAATVADPRKTAVEAAIARAKARKLEQQQANAEPEQQVDPRKAAVEAAIARAKARKLEQQQANAEPEEQVDPRKAAVEAAIARAKARKLEQQQANAEPEQQVDPRKAAVEAAIARAKARKREQQPANAEPEEQVDPRKAAVEAAIARAKARKLEQQQANAVPEEQVDPRKAAVAAAIARAQAKKAAQQKVVNED | – | 1.01 ± 0.033 | 1.3 ± 0.13 | 1.31 ± 0.069 | 1.76 | 1.16 | – | 1.8 ± 0.14 | 2.72 ± 0.58 | 5.65 ± 0.73 | 2.67 ± 0.51 | > 8 |
